Laboratory results: patent US7067117 (CAMBRIDGE UNIVERSITY TECHNICAL SERVICES, dated 2006)
One block for each binder: values may come before it. Square brackets hold non-standard residues; d marks the D form. Ends that are not written are not given here. * marks the point of attachment. Biotin = O=C1N[C@H]2[C@H](CS[C@H]2CCCCC(=O)*)N1

Tests used:
[1] = target: TGF-beta receptor of THP-1 cells; test: biotinylated peptide binding to THP-1 cells
[2] = target: chemokine receptors on THP-1 cells; test: cell-based or functional assay
[3] = target: T1, Duffy Antigen Receptor for Chemokines (DARC) (human, UniProt Q16570 1-336); test: estimated ka for binding to red blood cells divided by average inhibitory ED50 (THP-1 migration)
T1 construct: whole, on cells
T1 sequence (looked up): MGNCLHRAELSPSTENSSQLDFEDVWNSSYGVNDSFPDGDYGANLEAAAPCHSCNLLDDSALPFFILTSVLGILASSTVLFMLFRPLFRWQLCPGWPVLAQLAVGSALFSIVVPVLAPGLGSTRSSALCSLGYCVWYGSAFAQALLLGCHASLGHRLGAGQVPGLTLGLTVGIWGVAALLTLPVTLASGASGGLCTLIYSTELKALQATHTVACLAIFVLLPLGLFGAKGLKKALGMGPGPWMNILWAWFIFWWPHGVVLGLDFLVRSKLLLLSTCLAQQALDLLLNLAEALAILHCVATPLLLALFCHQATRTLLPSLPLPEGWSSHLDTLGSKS
Experimental: Counts associated with the cells are then determined by gamma-counting scintigraphy. […] Furthermore, Scatchard analysis confirms the presence of a single high affinity binding site with 500–1000 copies per cell, consistent with the known properties of DARC.
The DARC specificity ratio is also determined. The DARC specificity ratio is defined as the estimated ka for association with DARC divided by the $ED50$ for biological activity. […] Thus, it may be difficult to achieve biologically active (as a chemokine inhibitor) concentrations of these peptides in vivo without further modifications of the peptide.
Footnotes [a]'CC-specificity' is the average inhibitory ED$50$ versus SDF1 and IL8 divided by average inhibitory ED$50$ versus MCP-1 and MIP1α. [b]'Duffy selectivity' is the estimated ka for binding to red blood cells divided by average inhibitory ED$50$ versus each of the chemokines (except for peptide 2; see footnote d below). [c]'Average ED$50$' is the average inhibitory ED$50$ for inhibition of THP-1 migration induced by each of the chemokines (except for peptide 2; see footnote e below). [d]For the peptide 2 family, the 'average ED$50$' is the estimated ka for binding to THP-1 cells. [e]For the peptide 2 family, the 'Duffy selectivity' is calculated as the ka for binding to red blood cells divided by the ka for binding THP1-1 cells. [f]For tripeptide derivatives so marked, the peptide is highly specific for one of the four exemplary chemokines.

[4] = target: T2, Duffy Antigen Receptor for Chemokines (DARC) (human, UniProt Q16570 1-336); test: DARC binding
T2 chain: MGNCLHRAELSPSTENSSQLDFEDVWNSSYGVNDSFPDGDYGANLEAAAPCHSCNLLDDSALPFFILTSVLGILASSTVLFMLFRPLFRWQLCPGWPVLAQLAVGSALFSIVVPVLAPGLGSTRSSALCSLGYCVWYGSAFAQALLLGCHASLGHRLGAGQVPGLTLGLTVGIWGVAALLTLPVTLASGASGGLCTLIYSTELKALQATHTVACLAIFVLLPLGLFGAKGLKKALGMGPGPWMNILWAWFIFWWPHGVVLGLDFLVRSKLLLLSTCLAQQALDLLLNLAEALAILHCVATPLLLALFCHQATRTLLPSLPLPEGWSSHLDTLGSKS

[5] = target: chemokine receptors on THP-1 cells; test: estimated ka for binding to THP-1 cells, printed under 'AVERAGE ED50 (µM)'
[6] = target: chemokine receptors on THP-1 cells; test: binding to chemokine receptors on THP-1 cells; given as 'association constant'
[7] = target: T1, Duffy Antigen Receptor for Chemokines …; test: ka for binding to red blood cells divided by ka for binding to THP-1 cells
[8] = target: T3, Duffy Antigen Receptor for Chemokines (DARC) (human), Q16570; test: Duffy binding
T3 chain: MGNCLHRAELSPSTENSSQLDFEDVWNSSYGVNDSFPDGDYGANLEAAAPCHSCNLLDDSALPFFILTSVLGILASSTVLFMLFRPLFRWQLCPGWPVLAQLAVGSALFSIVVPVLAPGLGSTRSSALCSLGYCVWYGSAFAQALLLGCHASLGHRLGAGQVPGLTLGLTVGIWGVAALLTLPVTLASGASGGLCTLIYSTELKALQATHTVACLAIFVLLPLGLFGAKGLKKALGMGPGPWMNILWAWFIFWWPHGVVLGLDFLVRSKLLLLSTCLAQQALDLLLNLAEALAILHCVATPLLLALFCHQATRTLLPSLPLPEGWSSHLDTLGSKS

CCR5, P51681 = test: method not described; given as 'affinity constant'
CXCR4, P61073 = target: T4, CXCR4, P61073; test: method not described; given as 'affinity constant'
T4 chain: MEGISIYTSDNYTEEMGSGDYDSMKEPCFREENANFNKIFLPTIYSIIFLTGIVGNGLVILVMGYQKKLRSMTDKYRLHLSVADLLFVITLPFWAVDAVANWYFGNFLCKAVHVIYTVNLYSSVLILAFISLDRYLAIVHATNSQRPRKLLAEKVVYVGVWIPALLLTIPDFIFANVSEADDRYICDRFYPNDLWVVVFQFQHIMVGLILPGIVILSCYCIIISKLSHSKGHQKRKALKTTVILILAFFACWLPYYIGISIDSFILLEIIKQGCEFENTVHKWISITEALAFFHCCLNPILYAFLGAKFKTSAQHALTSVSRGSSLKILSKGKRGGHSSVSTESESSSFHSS

[9] = target: T3, Duffy Antigen Receptor for Chemokines …; test: Duffy binding, LRD against LFL peptide 2(1-15)[MCP-1]
[10] = target: T3, Duffy Antigen Receptor for Chemokines …; test: DARC binding; conditions: modification not given
[11] = target: chemokine receptors on THP-1 cells; test: biotinylated peptide binding to the surface of THP-1 cells; printed as 'ka' in µM

Chain of CCR5, P51681 (P51681 whole entry): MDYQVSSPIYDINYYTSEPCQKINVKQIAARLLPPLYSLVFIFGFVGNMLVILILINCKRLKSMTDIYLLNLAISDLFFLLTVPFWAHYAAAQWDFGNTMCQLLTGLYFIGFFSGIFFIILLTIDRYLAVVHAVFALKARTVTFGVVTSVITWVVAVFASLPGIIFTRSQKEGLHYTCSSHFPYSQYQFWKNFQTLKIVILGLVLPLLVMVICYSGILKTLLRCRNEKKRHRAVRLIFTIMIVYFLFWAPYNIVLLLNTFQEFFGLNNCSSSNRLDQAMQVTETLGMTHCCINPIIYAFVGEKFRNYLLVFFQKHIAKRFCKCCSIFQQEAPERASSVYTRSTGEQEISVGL

EC50 [1]: 30 µM
Binder: HEPKGYHANFC (also: biotinylated (position not given here)) [Biotinylated T2]

ED50 for inhibition of THP-1 migration versus IL8 [2]: 6 µM
ED50 for inhibition of THP-1 migration versus MCP1 [2]: 7 µM
ED50 for inhibition of THP-1 migration versus MIP1α [2]: 5 µM
ED50 for inhibition of THP-1 migration versus SDF1α [2]: 6 µM
average ED50 for inhibition of THP-1 migration induced by each of the chemokines [2]: 6 µM
Duffy selectivity [3]: 2.94 ratio
Binder: KQKWVQ (also called Pep3[7-12]; KQKWVQ) [peptide 3(7-12)[MCP-1]]

% inhibition of migration induced by RANTES at 100 µM tripeptide [2]: 87%
Binder: SES

ED50 for inhibition of THP-1 migration versus IL8 [2]: 3 µM
ED50 for inhibition of THP-1 migration versus MCP1 [2]: 8 µM
ED50 for inhibition of THP-1 migration versus MIP1α [2]: 7 µM
ED50 for inhibition of THP-1 migration versus SDF1α [2]: 3 µM
average ED50 for inhibition of THP-1 migration induced by each of the chemokines [2]: 5 µM
Binder: EICLDPKQKWVQ [Leu4peptide 3(1-12)[MCP-1]]

ED50 for inhibition of THP-1 migration versus IL8 [2]: 3 µM
ED50 for inhibition of THP-1 migration versus MCP1 [2]: 2 µM
ED50 for inhibition of THP-1 migration versus MIP1α [2]: 1 µM
ED50 for inhibition of THP-1 migration versus SDF1α [2]: 3 µM
average ED50 for inhibition of THP-1 migration induced by each of the chemokines [2]: 2 µM
inhibition of MCP-1 induced migration [2]: 1 µM
Duffy selectivity [3]: 37.8 ratio
B1: Leu4Ile11peptide 3(1-12)[MCP-1] (peptide)
peptide: EICLDPKQKWIQ
notes: also called Leu4Ile11pep3; Leu4Ile11peptide 3[MCP-1]

% inhibition of migration induced by IL-8 at 100 µM tripeptide [2]: 70%
% inhibition of migration induced by MCP-1 at 100 µM tripeptide [2]: 21%
Binder: KEN

Kd [4]: > 100 µM
Kd [5]: 1 to 10 µM
Kd [6]: 0.1 to 0.9 µM
Duffy selectivity [7]: > 100 ratio
B2: peptide 2(1-14)[MIP1α] (peptide)
peptide: DYFETSSQCSKPGV
notes: also called Pep2[MIP1α]; Pep2(1-14)[MIP1α]

ED50 for inhibition of THP-1 migration versus IL8 [2]: 9 µM
ED50 for inhibition of THP-1 migration versus MCP1 [2]: 7 µM
ED50 for inhibition of THP-1 migration versus MIP1α [2]: 2 µM
ED50 for inhibition of THP-1 migration versus SDF1α [2]: 5 µM
average ED50 for inhibition of THP-1 migration induced by each of the chemokines [2]: 6 µM
Duffy selectivity [3]: 0.59 ratio
Binder: EICADPSEEWVQ (not fully specified, also called Ser7Glu8Glu9pep3) [Ser7Glu8Glu9peptide 3(1-12)[MCP-1]]

Kd [4]: 22 µM
Binder: SYRRITSK

Kd [5]: 1 to 10 µM
Duffy selectivity [7]: < 1 ratio
Binder: ELRVIESGPHCANTEI (also called Pep2[IL8]) [Pep2(1-16)[IL8]]

average ED50 for inhibition of THP-1 migration induced by each of the chemokines [2]: 2 µM
Binder: WIQ

% inhibition of migration induced by MIP1α at 100 µM tripeptide [2]: 65%
ED50 for inhibition of THP-1 migration induced by the one chemokine it is specific for (MIP1α) [2]: 0.8 µM
ED50 for inhibition of THP-1 migration versus MIP1α [2]: 6 µM
Binder: SEE

Kd [8]: 25 µM
Kd (CCR5, P51681): < 0.1 µM
Kd (CXCR4, P61073): < 0.1 µM
fold decrease in Duffy binding against the LFL peptide [9]: 100 fold
Kd [10]: 18 µM
Binder: VAEKPCKSSTIRRYS (not fully specified) [LRD peptide 2(1-15)[MCP-1]]

Kd [11]: 10 µM
Binder: Biotin-EICADPKQKWVQ [N-terminally biotinylated derivative of peptide 3(1-12)[MCP-1]]
